Measured values from the DeepSol protein solubility set.

Assay: soluble on expression in E. coli; label from the status in PepcDB or PDB records

| Sequence | soluble on expression in E. coli |
| --- | --- |
| MEANKREIVDFGGLRSYFFPNLAHYITKNDEELFNNTSQANKLAAFVLGASKDAPGDEDILEMILPNDANAAVIAAGMDVCLLLGDKFRPKFDAAAEKLSGLGHAHDLVSVIDDDKKLGMLARKAKLKKTEDAKILQALLKVIAIDDAAEKFVELTELVSQLDLDFDVYVLTKILGLISEETSDEVDIIRDNVVNAFDSCKPLLKQLMLDGPKSEPADPFISLLMDPLEESVGKVVNHIAQLFEEASKNEGDESLVLRSQLGYQLFFLIVRSLADGKREVSKKILSGIPTSVRAEVFPGLQRSVYKSAVFLGNHIIQVLLGSKKSFEDWDVVGVAKDLESAWKRRAIAELIKKFQVSILEQCFDKPVPLIPQSPLNNDAVIDNVNKALQFALWLTEFYGSENETEALGELRFLDSTSKNLLVDSFKKFVQGINSKTHVTRIVESLEKCCLSDTPSGRKSNVQPSTSQQQDSAYTKEEMTTVHNTYSVNTKAQVLNGLSDTNSSGLLVDSKDSLSLQEISCDEVDSSTLLSSSRNIGEGVTVKAVDPVPEKVNDAQQQQTVNEIEMASDANQDTSSSASPEVAPSFSTDGWDSPTKSVALPPGMQQIDEEETTVADKDSTPQPQARAETAWGSGDATPMPLPAPTNQYKVSGFGEAKVAKGFGQFAPTSSAYGGGGGRGGYGGGDRGGRGGYGGDRGGRGGYGGGDRGGRGGYGGDRGRGGYGGRGGRGGF | not soluble |
| MGSDKIHHHHHHMLERRHIARDISYSHSAETRPGRIMIRLMENTTGRLRLIKRAKGYDMEVASGRSFWDVIVERYGLSLDVVGGSLDAIPRDKPVILIANHPYGILDGLMMGHILSRTRCDFRMLAHQVFRKAEDLNKVILPIDFAETKEAMKVNLQTRKDALDYLGQGGAIGIFPGGTVSTASKPFAHPMDPGWRGFTARMVAKSDAVVVPLYFDGHTSRLFQIASHLHYTLRMGLLIKEFKKRVDTPVKVVIGEPIGRDVLDPLAKDSKAMMDFLRKATYELSPTPLKSYDYGFEFEEKHRA | not soluble |
| MGSDKIHHHHHHMVQISETSSELIQLLRIENSAPEVLQILDHADSRYIRDLKVNVSNALVTAHISEKESALLALSIAANQKNNILISGFQKLSAEKGATIEEQNEAISCASLLAGNNVFYRFRHFQQKESYNTMQAKIKMNIMMKPVLGKEFFELISLAVSAVNGCEMCVNAHEHSVREMGATEERVWDAIRLAAVITSLDKVMS | not soluble |
| SIIPSLEELDSLKYSDLQNLAKSLGLRANLRATKLLKALKGYIKHEARKGNENQDESQTSASSCDETEIQISNQEEAERQPLGHVTKTRRRCKTVRVDPDSQQNHSEIKISNPTEFQNHEKQESQDLRATAKVPSPPDEHQEAENAVSSGNRDSKVPSEGKKSLYTDESSKPGKNKRTAITTPNFKKLHEAHFKEMESIDQYIERKKKHFEEHNSMNELKQPINKGGVRTPVPPRGRLSVASTPISQRRSQGRSCGPASQSTLGLKGSLKRSAISAAKTGVRFSAATKDNEHKRSLTKTPARKSAHVTVSGGTPKGEAVLGTHKLKTITGNSAAVITPFKLTTEATQTPVSNKKPVFDLKASLSRPLNYEPHKGKLKPWGQSKENNYLNQHVNRINFYKKTYKQPHLQTKEEQRKKREQERKEKKAKVLGMRRGLILAED | not soluble |
| MVIVGGQDRSISTRQGAAMTDTPPPETDAAPEVPGAAPGKTLTPAARRALEEAAARRAAEAALSLPPEEGGRDGPEPTRFGDWEKKGVAVDFLEHHHHHH | not soluble |
| MGSDKIHHHHHHMLWYDSRAQRLRERSAVWAQNQKTDPDFDGLPPKYAEELQKNILGTVVLPGDPEYDTDRMLSNPRFSAYPQVIVYCEVETDVAECLRVARALSMAVVVRSGGHSTAGFSSQNGFLIDVSRMNDVCISPEALRAWVGPGTNFGKFNAKLLPYDLHTPGGACPDVCVGGYMQGGGYGFTARIFGMNCDQVEEIRVMMTDGRIVHANAELNPDLFWAVRGGTGSNFGVLLGVKYRLYRGSTFAGFSVRWSMQTDAGVQDTATSLAWLQENFMRTGAPDTMGYQMIWAFEGPEGQAKEPVLLMRGMYRGTREELQEKLAPVLALPGATLQAIYDPQQYIDLNRILLSEPYEVPEFPADMTPMPPPEAKISRYVAKPIDAAGWKALLDYFRTSPSPYTIAAMEIYGGAIARMPKGENAFFHRDVYCDLFFDVFWLTEQEKETMLAFIAGWEAAFAPHWTGQSYQNYPSPDNPGFADEYWGDTYWLLRLIKHKYDPINLLRFPQSIQPLEWHPPGPGFPPGFRGFEDPIQAIAG | not soluble |
| MGSDKIHHHHHHMLEHKIDFMVTLEVKEANANGDPLNGNMPRTDAKGYGVMSDVSIKRKIRNRLQDMGKSIFVQANERIEDDFRSLEKRFSQHFTAKTPDKEIEEKANALWFDVRAFGQVFTYLKKSIGVRGPVSISMAKSLEPIVISSLQITRSTNGMEAKNNSGRSSDTMGTKHFVDYGVYVLKGSINAYFAEKTGFSQEDAEAIKEVLVSLFENDASSARPEGSMRVCEVFWFTHSSKLGNVSSARVFDLLEYHQSIEEKSTYDAYQIHLNQEKLAKYEAKGLTLEILEGL | not soluble |
| MSLNIAIFINTPAQFHFYRNIAKELKNRGHFVELLFRDYGENLEIAKELGLNPTVYAKPSDSKYGKILSLPSDVLRATKLLKKFKPDIITGFGVYDAFSSFLVNVPCIVFNDSEPFINSSYAVQFKLFMPFTNVLITPEAFQPNFGTKHINIPSYKEFSYLHPNYYTPKEDIFELIGIEKNEEYILLRFNAFDAVHDAGITGFTKENKIKLVKELEKHCKVFISSETQVPKEIEKNILKTPKSRIHDVLYYAKILITDTQTMTTEAALLGTPALRYNKFVGGKDMSNFIELEKNYGLIFNYQNSEKIFERAFELLNTENLKEIWKKKRELLLKNKIDSTSFMVWFFENYPESFEKMKTDVTIYENFNDNLAKIKGEGHHHHHH | soluble |
| GSSGSSGMQLEIQVALNFIISYLYNKLPRRRVNIFGEELERLLKKKYEGHWYPEKPYKGSGFRCIHIGEKVDPVIEQASKESGLDIDDVRGNLPQDLSVWIDPFEVSYQIGEKGPVKVLYVDDNSGPSSG | soluble |
| MTKFDLNDSSVVVIVGSGAGGGTLGNELAQKGVKVVILEAGPRIENQDFINDEWESFSQLAWTDARTTSGTWRVAKDFSGLPAWIVKAVGGSTVHWAGASLRFDEHEFRVKSAYGNIPGANLLDWPVTLAEMEPWYAKAENKMGVTRTNGIPGLPGNNNFKVLEAGAKKLGYKTVHTGNMAINSQPRDGRGSCQQIGFCFQGCKSGAKWSTLYTEIPKGEATGNLEVRPSSMAVKIEHDAGGKVTGVVYADEAGAMQRQKARIVAVAGNSIESPRLLLNSASTMFPDGLANSSGQVGRNYMRHMTGSVYAVFEKSVHMYRGTTMAGIIRDEAANNPKRGFVGGYEMETLSIGLPFMAAFLNPGAWGRPFTSALDGYPRMAGMWLVGEDMPQETNRITLDPVVKDKFGQPVASVHFDDHPNDIAMRAHAYKQGAAVYDAVGATVTYPTPPYPSTHNLGTNRMSEKPRDGVVNKFGQSHDVKNLFVSDGSQFTSGAACNPTLTIVALAIRQADYIAGAMQKKEILEHHHHHH | not soluble |
| AFKQLMFPFGMDSKMESGIVMPTTQFWNPIAINNVEAQNDFYSRENLAALKLLQKQAQEPEKLARLLEVYHESLGYNIVRRAEEAKVALSDQTAYCTGINLLSELIEVDVQRDEMIEAIESPKNKMTALVTEAVEQAGVKPDAIFMTGGSARSPILRDAVQTVLPNIPVVSGNYFGSVTAGLARWADVCFK | not soluble |
| MKIEDIYQFFENPPPTYLCQEVAICYILYVLLQGESYGTELIQQLETEHPTYRLSDTVLYSAIKFLEDNRAITGYWKKLEGRGRPRRMYQVSPEWQHQAEDLARLWQNYIYVRTN | soluble |
| MSSIQGYKMKEYSMPTKRYCQTLSLKNNPILIEEYRKIHSEEKAWPEIRAGIRAVGILEMEIYILGSQLFMIIETPLDFDWEIAMDKLSNLPRQAEWEKYVSKFQDCPYLSSSAEKWKLMERMFYLYED | not soluble |
| MRAKKRKFLQKEELSKLLQSLDMSQIGFGWFVMLVAKTGMRYAEALAITPADFDWTAQTISINKTWDYKYNKGFAKTKTLSSVRTIKIDWQIVGQFKPLIKDFPEDEPIFVEKFGDGTYKRQFNSTINNFLAVKCNETGITQISFHALRHTHASVLLAEGVSIHTISARLGHADVGVTQETYALEHHHHHH | soluble |
| MSPIDQVLAAACALDASGKAPSLALIKSRLGNKFPMPILIQGLQQFKSMPKAERERLAALSIPEVEEQKPTEPVPLSVTTLAAQLTELQKGFEQAIALKNTEIMQLTNELIELKQRVNQLELQGKSV | soluble |
| MSLQWAKQSEQNVYSNRWFSVNLADVLLPDGRHLDHFLIRMRPVAVATVVNEADEVLLLWRHRFITDSWGWELAAGVVEDGEDVAVAAARELEEETGWRPGPLHHLMSVEPSNGLTDARHHVYWAEEGTYVGHPVDDFESERREWVPLKLVPDLVARGEVPAANMAAALLLLHHLRLGRDQEGHHHHHH | soluble |
| MGSDKIHHHHHHMNRDYVCSEMFCMGTIISQKIYGEDKKEVLFKVENEMRRLEKAMNFYSSSSEISKLNKFGFENEIKLSKDVYHVIKNAKNFSKKTLGAFDISLAPIIKLWGIFCENERVPSVKEIEKNLSLVNYKNLVLNDYKRTVKFLVEDMKVDLGGIAKGYAADRAIDIYKGGGVKSASINLGGNVSVIGEKPDGKSWCIGVQNPLKKRGEIIGAISVKNKSVVTSGSYVRYFEKDNIKYHHIIDPKTGYPAKEELLSVTVIFENSMLCDAVSTAAFIAGADGGIELVKRFRDVEAIFITKDRKVIITKGIAKSFSLVEESGFQYL | not soluble |
| MGSDKIHHHHHHKDDADAPLRFYDSKYEVPMGGRRYLGIESGNGDYSLEIGNPRIASAGIESGWSGVPAGRMIYISGILTGSTYLKVTDNATQETLTLPIKVVDYYEDLNLIHGSSSLRPNGDENLLPGVDDIFLVSNAARDAYFFKQGQRTAFSSGLELITKGTYALKQEDENKATLTLTFSLDASPATEHHFTVWGNTYLLHRLDKNLHLNWGTPPIGETRTSPAPPPAYTLEEITEGAEPGTGRQVGFILNYKEIPTGILP | not soluble |
| MPEFDFSPITEGIYNVIETEEKVLTSLPEETITQKRNRQNRTIKQILGHLIDSTSNNHQRMIRLQYSKDLLFFPDYRQDNDLWIALQDYQHTDWNNLIQLWKFFNLHIIQVIKSVDQTKLDSYWCDFEGTKVTLKEMIEGYLDHLNLHIQEIHELI | not soluble |
| MSEYREIITKAVVAKGRKFTQCTNTISPEKKPSSILGGWIINHKYDAEKIGKTVEIEGYYDINVWYSYADNTKTEVVTERVKYVDVIKLRYRDNNYLDDEHEVIAKVLQQPNCLEVTISPNGNKIVVQAEREFLAEVVGETKVVVEVNPDWEEDDEEDWEDELDEELEDINPEFLVGDPEELEHHHHHH | soluble |
| MGSDKIHHHHHHMVKKIMLHGATDYGSSNYGDYLYGEIVYDLLESKGYEVSFYNPSDFFQMYLKEYRQKQSFTKKQADAILYIPGGYFGEGHNARFRDNLIQFKRFLPLGIWASYFKKPIGVLGIGAGPNNDSLMNYGIKRIINHAQFITVRDRESFDSLKHLSPSAPVHETFDLIISSKLREEKTEQLCQLKREAKDKKIILVHYNHSKKALEKFAESISLFLENNPNYYVVVTSDSILPYEDAYYQEFRKLVRTEDCFQFKYHSPAEMTSLLKMVDVVLTCKLHVGVVATCFNKSVIAIACHPEKTARYYGAIGELQRCESLFDSSVNSIVKKLETFHLKPITIPSELVLKARSSLDYLDLFLEGLVRES | not soluble |
| MAHHHHHHMQEVMQKALAGRYDPLPPTISPEMTEVVTSLLCGDPHARPSSSKLLNMPICKLFVSGLLEIVQTQPSFAGPLRDTISTHIQSVKQSLKEERRVTVRQMEESQSAAAASTTILEGATPMGSVGDLTLYEGIVKKQSGDLAWKRRYLCIRGALEEGERLDVGRMPKFKSLDLVLAVSKETMRQQCITTPFSELEDVFPVASKYTGSNAQHVFAVAFKTGRRLLFQARGDPERDAWMQKIQQTLGIDEAD | not soluble |
